The results in this text go back to US20150087809A1.

Where two headings read alike, the source gives them in different places.

For assay [1], the target named is T1, HLA-A24 type molecule (product of the HLA-A*2402 gene) (human).
Assay [2] addresses T1, HLA-A24 type molecule (product of the …). The source holds these as a separate data set.
Assay [3] shares this target. This is another data set of the same source.

For VLADFKTWL (modifications not checked) [SEQ ID NO 112], the -log Kd in assay [1] was 6.63 -log Kd (M).
Turning to WHYPCTVNF (modifications not checked) [SEQ ID NO 52], the -log Kd in assay [2] was 6.39 -log Kd (M).
As to ILLGPADSF (modifications not checked) [SEQ ID NO 75], in assay [2], the -log Kd is 5.5 -log Kd (M).
For WLRDVWDWI (modifications not checked) [SEQ ID NO 106], the -log Kd in assay [1] is 6.34 -log Kd (M).
With NFSRCWVAL (modifications not checked) [SEQ ID NO 37], the -log Kd in assay [3] was 6.28 -log Kd (M).
ILMTHFFSI (modifications not checked) [SEQ ID NO 96]: in assay [1], the -log Kd is 7.9 -log Kd (M).
In the case of WHYPCTVNF (modifications not checked) [SEQ ID NO 8], the -log Kd in assay [3] is 6.39 -log Kd (M).
Turning to ITYSTYGKF (modifications not checked) [SEQ ID NO 107], the -log Kd in assay [1] (remark: other sources report otherwise) is 6.37 -log Kd (M).
On to LLKRLHQWI (modifications not checked) [SEQ ID NO 104], for which, in assay [1], the -log Kd was 6.86 -log Kd (M).
On the same count and under the same terms, under LLSTTEWQI (modifications not checked) [SEQ ID NO 109] stands 8.34 -log Kd (M).
Consider VILDSFEPL (modifications not checked) [SEQ ID NO 45], for which the -log Kd in assay [2] was 5 -log Kd (M).
Consider GLIHLHQNI (modifications not checked) [SEQ ID NO 94], for which, in assay [1], the -log Kd is 5.86 -log Kd (M).
The same measure, in the same setting: the figure for TVLADFKTW (modifications not checked) [SEQ ID NO 90] is 6.52 -log Kd (M).
With AFYGVWPLL (modifications not checked) [SEQ ID NO 98], the -log Kd in assay [1] was 7.73 -log Kd (M).
Regarding LLKRLHQWI (modifications not checked) [SEQ ID NO 19], the -log Kd in assay [3] is 6.86 -log Kd (M).
In the case of AQPGYPWPL (modifications not checked) [SEQ ID NO 58], the -log Kd in assay [2] is 5.36 -log Kd (M).
Turning to SYTWTGALI (modifications not checked) [SEQ ID NO 14], in assay [3], the -log Kd is 7.13 -log Kd (M).
Turning to VFPDLGVRV (modifications not checked) [SEQ ID NO 123], the -log Kd in assay [1] is 6.74 -log Kd (M).
Consider AYYSMVGNW (modifications not checked) [SEQ ID NO 22], for which, in assay [3], the -log Kd was 6.47 -log Kd (M).
Consider LMTHFFSIL (modifications not checked) [SEQ ID NO 64], for which, in assay [2], the -log Kd was 5.92 -log Kd (M).
Regarding SYTWTGALI (modifications not checked) [SEQ ID NO 108], in assay [1], the -log Kd was 7.13 -log Kd (M).
In the case of RYAPACKPL (modifications not checked) [SEQ ID NO 71], in assay [2], the -log Kd was 6.76 -log Kd (M).
The same measure, in the same setting: under TVLADFKTW (modifications not checked) [SEQ ID NO 56] stands 6.52 -log Kd (M); under AYYSMVGNW (modifications not checked) [SEQ ID NO 67], 6.47 -log Kd (M).
VILDSFEPL (modifications not checked) [SEQ ID NO 84]: the -log Kd in assay [1] is 5 -log Kd (M).
On the same count and under the same terms, under AYYSMVGNW (modifications not checked) [SEQ ID NO 102] stands 6.47 -log Kd (M).
Take LMCAVHPEL (modifications not checked) [SEQ ID NO 55]: the -log Kd in assay [2] was 6.59 -log Kd (M).
In the case of ILMTHFFSI (modifications not checked) [SEQ ID NO 13], the -log Kd in assay [3] was 7.9 -log Kd (M).
Regarding RYAPACKPL (modifications not checked) [SEQ ID NO 110], in assay [1], the -log Kd is 6.76 -log Kd (M).
On to ITYSTYCKF (modifications not checked) [SEQ ID NO 40], for which the -log Kd in assay [3] is 6.98 -log Kd (M).
In the case of GLIHLHQNI (modifications not checked) [SEQ ID NO 54], the -log Kd in assay [2] was 5.86 -log Kd (M).
Still for that read-out and setting: the figure for SYTWTGALI (modifications not checked) [SEQ ID NO 61] is 7.13 -log Kd (M).
On to ILLGPADSF (modifications not checked) [SEQ ID NO 100], for which, in assay [1], the -log Kd is 5.5 -log Kd (M).
ILPCSFTTL (modifications not checked) [SEQ ID NO 1]: the -log Kd in assay [3] was 7.66 -log Kd (M).
Still for that read-out and setting: under ILLGPADSF (modifications not checked) [SEQ ID NO 27] stands 5.5 -log Kd (M).
PLLRDEVTF (modifications not checked) [SEQ ID NO 87]: the -log Kd in assay [1] was 5.09 -log Kd (M).
Take LLKRLHQWI (modifications not checked) [SEQ ID NO 65]: the -log Kd in assay [2] is 6.86 -log Kd (M).
Consider WHYPCTVNF (modifications not checked) [SEQ ID NO 92], for which the -log Kd in assay [1] was 6.39 -log Kd (M).
Take WLRDVWDWI (modifications not checked) [SEQ ID NO 76]: the -log Kd in assay [2] is 6.34 -log Kd (M).
As for LLSTTEWQI (modifications not checked) [SEQ ID NO 42], the -log Kd in assay [3] is 8.34 -log Kd (M).
In the case of PLLRDEVTF (modifications not checked) [SEQ ID NO 59], the -log Kd in assay [2] is 5.09 -log Kd (M).
VILDSFDPI (modifications not checked) [SEQ ID NO 2]: the -log Kd in assay [3] is 5.32 -log Kd (M).
In the case of ILMTHFFSI (modifications not checked) [SEQ ID NO 60], in assay [2], the -log Kd is 7.9 -log Kd (M).
For AQPGYPWPL (modifications not checked) [SEQ ID NO 12], the -log Kd in assay [3] was 5.36 -log Kd (M).
Still for that read-out and setting: the figure for LMTHFFSIL (modifications not checked) [SEQ ID NO 18] is 5.92 -log Kd (M).
Consider AFYGVWPLL (modifications not checked) [SEQ ID NO 49], for which the -log Kd in assay [2] was 7.73 -log Kd (M).
